Assay results reported in paper doi:10.1101/2024.01.08.574586.

Biological target: recombinant biotinylated HIP1 protein (UniProt O00291)
Test: SPR

Chain of UniProt O00291 (O00291 whole entry): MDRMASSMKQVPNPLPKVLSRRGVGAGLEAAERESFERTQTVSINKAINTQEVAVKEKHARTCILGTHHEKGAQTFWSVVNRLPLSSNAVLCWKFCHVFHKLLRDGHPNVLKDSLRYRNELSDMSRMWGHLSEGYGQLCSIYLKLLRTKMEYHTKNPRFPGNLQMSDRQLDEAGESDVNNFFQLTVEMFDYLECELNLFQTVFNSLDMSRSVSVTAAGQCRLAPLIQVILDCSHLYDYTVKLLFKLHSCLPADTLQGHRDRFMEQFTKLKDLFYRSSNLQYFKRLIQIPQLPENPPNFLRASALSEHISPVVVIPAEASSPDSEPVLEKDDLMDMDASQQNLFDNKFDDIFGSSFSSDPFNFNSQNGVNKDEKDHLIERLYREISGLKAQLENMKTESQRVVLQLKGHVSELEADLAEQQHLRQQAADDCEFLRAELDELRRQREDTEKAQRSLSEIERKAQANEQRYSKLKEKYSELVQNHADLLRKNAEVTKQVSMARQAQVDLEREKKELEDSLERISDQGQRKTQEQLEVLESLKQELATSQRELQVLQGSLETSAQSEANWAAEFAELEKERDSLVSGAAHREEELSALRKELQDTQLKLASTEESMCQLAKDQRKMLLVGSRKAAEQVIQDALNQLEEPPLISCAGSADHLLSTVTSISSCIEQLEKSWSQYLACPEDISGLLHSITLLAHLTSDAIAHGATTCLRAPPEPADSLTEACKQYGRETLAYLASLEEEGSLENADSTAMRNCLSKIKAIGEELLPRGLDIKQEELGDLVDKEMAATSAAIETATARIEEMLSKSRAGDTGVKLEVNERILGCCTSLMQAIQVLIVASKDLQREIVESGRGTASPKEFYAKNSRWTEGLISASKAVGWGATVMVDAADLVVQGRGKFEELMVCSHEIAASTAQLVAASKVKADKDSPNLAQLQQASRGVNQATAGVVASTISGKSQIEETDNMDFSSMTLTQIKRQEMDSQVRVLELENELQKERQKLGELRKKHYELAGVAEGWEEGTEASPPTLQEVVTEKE

| Kd [µM] | Substance |
| --- | --- |
| 137 | K48-linked Ub2 (SPR analyte) (from UniProt P0CG48) |
| 66.2 | K48-linked Ub3 (SPR analyte) (from UniProt P0CG48) |
| 0.07 | K48/K63-linked branched Ub3 (SPR analyte) (from UniProt P0CG48) |
| 1.89 | K63-linked Ub2 (SPR analyte) (from UniProt P0CG48) |
| 1.55 | K63-linked Ub3 (SPR analyte) (from UniProt P0CG48) |
| 197 | mono Ub (SPR analyte) (from UniProt P0CG48 1-76) (natural protein) |
